This test has as its target T1, human c-Met/Fc fusion protein (R&D Systems) (human, UniProt P08581 25-932).
T1 construct: Bought reagent; also called human c-Met/Fc protein; not shown: Fc part of the bought fusion
Briefly: ELISA, human c-Met/Fc fusion protein coated at 2 µg/mL, hybridoma culture, anti-mouse IgG-HRP. On the procedure: Human c-Met/Fc fusion protein was seeded in an amount of 50 μL (2 μg/mL)/well to microtiter plates and allowed to adhere to the surface of each well. The antibody that remained unbound was removed by washing.
The hybridoma cell culture obtained in Reference Example 1.1.2 was added in an amount of 50 μL to each well of the plates and incubated for 1 hour. The cells remaining unreacted were washed out with a sufficient amount of Tris-buffered saline and Tween 20 (TBST). Goat anti-mouse IgG-horseradish peroxidase (HRP) was added to the plates and incubated for 1 hour at room temperature. The plates were washed with a sufficient amount of TBST, followed by reacting the peroxidase with a substrate (OPD). Absorbance at 450 nm was measured on an ELISA reader.
(In general: An ELISA detects its analyte on a solid surface through an enzyme-linked reagent.)

T1 sequence (P08581 25-932 limits assumed): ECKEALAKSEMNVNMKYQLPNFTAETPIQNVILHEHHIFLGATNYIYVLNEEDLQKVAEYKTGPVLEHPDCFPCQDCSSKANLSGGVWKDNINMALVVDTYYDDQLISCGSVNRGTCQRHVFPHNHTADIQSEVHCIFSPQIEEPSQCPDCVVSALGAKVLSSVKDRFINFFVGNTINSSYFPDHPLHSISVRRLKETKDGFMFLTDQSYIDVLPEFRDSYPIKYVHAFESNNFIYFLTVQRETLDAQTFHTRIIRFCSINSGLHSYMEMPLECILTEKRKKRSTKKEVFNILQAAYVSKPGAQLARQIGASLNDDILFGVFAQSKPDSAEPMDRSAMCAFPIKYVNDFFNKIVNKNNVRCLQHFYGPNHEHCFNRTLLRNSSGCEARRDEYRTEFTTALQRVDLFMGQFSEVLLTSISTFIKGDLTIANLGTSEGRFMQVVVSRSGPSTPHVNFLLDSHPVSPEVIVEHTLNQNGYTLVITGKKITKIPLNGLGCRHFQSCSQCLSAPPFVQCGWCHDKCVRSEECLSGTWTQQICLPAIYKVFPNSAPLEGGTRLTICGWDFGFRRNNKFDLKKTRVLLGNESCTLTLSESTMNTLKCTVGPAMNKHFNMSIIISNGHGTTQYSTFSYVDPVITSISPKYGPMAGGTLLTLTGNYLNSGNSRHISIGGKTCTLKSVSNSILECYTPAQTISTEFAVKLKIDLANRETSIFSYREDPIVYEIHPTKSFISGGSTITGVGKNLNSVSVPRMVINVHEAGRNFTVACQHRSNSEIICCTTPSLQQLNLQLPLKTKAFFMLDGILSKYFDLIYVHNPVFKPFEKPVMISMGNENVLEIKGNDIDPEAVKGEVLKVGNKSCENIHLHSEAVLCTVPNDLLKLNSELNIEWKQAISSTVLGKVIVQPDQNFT

B1: AbF46, mouse monoclonal antibody to c-Met (hybridoma KCLRF-BP-00220) (antibody, V domains shown)
VH: EVKLVESGGGLVQPGGSLRLSCATSGFTFTDYYMSWVRQPPGKALEWLGFIRNKANGYTTEYSASVKGRFTISRDNSQSILYLQMDTLRAEDSATYYCARDNWFAYWGQGTLVTVSA
VL: DILMTQSPSSLTVSAGEKVTMSCKSSQSLLASGNQNNYLAWHQQKPGRSPKMLIIWASTRVSGVPDRFIGSGSGTDFTLTINSVQAEDLAVYYCQQSYSAPLTFGAGTKLELK
notes: Tested as hybridoma culture supernatant in the screening ELISA; also called mouse antibody AbF46
As for B1, the binding result is listed as “binds”.

Values taken from patent US20150197542A1 (SAMSUNG ELECTRONICS, published 2015).
